Assay results published in US20030228371A1 (STASYS TECHNOLOGIES, published 2003).
Where two headings read alike, the source gives them in different places. Square brackets hold non-standard residues; d marks the D form. Ends that are not written are not given here. * marks the point of attachment. 2Thi = N[C@@H](Cc1cccs1)C(=O)O; Nicotinoyl = O=C(c1cccnc1)*

T1: human angiotensin AT2 receptor (human, UniProt P50052 1-363)
T1 sequence (looked up): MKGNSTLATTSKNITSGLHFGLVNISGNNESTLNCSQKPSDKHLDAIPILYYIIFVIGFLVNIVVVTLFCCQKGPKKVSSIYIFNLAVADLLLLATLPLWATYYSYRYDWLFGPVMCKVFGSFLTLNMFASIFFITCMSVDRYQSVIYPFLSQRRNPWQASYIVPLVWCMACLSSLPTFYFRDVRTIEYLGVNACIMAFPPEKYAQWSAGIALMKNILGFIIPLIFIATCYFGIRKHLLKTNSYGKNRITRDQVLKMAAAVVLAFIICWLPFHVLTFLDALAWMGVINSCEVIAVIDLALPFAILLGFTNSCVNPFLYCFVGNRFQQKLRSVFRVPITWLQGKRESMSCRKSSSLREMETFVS

T2: human angiotensin AT2 receptor (human) (UniProt P50052)
T2 sequence (looked up): T1 sequence (looked up)

T3: Bradykinin B1
T3 sequence (P46663 whole entry, species assumed, looked up): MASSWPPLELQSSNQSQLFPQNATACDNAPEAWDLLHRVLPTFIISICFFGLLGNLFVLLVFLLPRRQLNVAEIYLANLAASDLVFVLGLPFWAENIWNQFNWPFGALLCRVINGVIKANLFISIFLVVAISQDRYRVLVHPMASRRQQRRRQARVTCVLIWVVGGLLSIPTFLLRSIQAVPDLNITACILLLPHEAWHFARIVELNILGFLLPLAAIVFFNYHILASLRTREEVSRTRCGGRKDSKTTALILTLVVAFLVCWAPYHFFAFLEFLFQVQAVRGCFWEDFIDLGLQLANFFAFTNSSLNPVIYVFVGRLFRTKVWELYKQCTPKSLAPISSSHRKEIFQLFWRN

T4: Thyrotropin Releasing Hormone
T4 sequence (P34981 whole entry, species assumed, looked up): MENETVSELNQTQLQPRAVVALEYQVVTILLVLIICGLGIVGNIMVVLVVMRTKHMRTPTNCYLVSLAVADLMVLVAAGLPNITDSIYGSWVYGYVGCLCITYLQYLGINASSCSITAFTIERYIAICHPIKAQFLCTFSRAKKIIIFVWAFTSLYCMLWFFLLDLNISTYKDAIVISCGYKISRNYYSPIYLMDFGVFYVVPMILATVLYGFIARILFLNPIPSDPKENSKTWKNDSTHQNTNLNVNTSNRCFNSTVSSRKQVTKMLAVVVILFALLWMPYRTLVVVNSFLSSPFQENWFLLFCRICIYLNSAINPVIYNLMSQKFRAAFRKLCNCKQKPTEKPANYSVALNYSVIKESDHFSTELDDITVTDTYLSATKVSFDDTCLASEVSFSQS

B1: CGP-42112A (peptide)
peptide: Nicotinoyl-YKHPI-OH
modifications: not fully specified (residue 2)
notes: Modified peptide ligand of the AT2 receptor and radioligand of the assay; also called CPG42112A

Experiments:
[1] = target: T1, human angiotensin AT2 receptor
[2] = target: T1, human angiotensin AT2 receptor; remark: listed apart in the source
[3] = target: T1, human angiotensin AT2 receptor; remark: listed apart in the source
Method: (§1) Compounds were screened at 10 μM. […] Biochem. Biophys. Res. Comm.

[4] = target: T2, human angiotensin AT2 receptor (human)
[5] = target: T1, human angiotensin AT2 receptor; assay: [125I]CGP-42112A binding to membranes of HeLa cells expressing human AT2 receptor
Method: as §1

Bradykinin B1 = target: T3, Bradykinin B1; assay: receptor panel ligand-binding screen, FPAh at 10 µM
Cholecystokinin = assay: as above
Estrogen ERa = assay: as above
Glutamate AMPA = assay: as above
[6] = target: Inositol Triphosphate IP3; assay: as above
Potassium Channel [Ka] = assay: as above
Serotonin 5-HT 2a = assay: as above
Chain of Serotonin 5-HT 2a (P28223 whole entry): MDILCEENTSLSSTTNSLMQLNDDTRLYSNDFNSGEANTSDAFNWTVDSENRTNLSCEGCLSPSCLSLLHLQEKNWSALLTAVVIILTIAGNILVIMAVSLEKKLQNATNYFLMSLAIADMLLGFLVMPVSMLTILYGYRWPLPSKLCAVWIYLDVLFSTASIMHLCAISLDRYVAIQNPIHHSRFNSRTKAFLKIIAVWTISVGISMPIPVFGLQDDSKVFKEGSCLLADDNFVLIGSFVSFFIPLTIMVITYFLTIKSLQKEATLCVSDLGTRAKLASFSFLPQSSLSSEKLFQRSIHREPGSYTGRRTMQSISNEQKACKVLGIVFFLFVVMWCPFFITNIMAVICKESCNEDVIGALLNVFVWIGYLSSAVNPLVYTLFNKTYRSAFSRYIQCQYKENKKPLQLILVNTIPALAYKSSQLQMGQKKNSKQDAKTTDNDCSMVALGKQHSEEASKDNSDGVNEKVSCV

[7] = target: T4, Thyrotropin Releasing Hormone; assay: as above
[8] = target: Vascular endothelial growth factor; assay: as above

Row | Molecule | % Inhibition ATII receptor [1] [%] | % Inhibition ATII receptor [3] [%] | other results
1 | Bradykinin (1-3) (peptide) | -2 |  | 
2 | N-Admantaneacetyl-DArg0-Hyp3, Thi5,8,DPhe7] Bradykinin (peptide) | 61 |  | 
3 | Saralasin (peptide) |  |  | IC50 [2]: 0.28 nM; Ki [2]: 0.091 nM; nH [2]: 0.9
4 | [Lys0-Hyp3] Bradykinin (peptide) | 13 |  | 
5 | N-Admantanecarbonyl-DArg0-Hyp3, Thi5,8, DPhe7] Bradykinin (peptide) | 63 |  | 
6 | PPGFSPFR [Bradykinin (2-9)] | -13 |  | 
7 | XRPXGXSXXR (D-Arg at 0; Hyp at 3; Igl at 5; D-Igl at 7; Oic at 8 (bradykinin numbering)) [B9430] | 70 |  | 
8 | XRPXGXSXXR (D-Arg at 0; Hyp at 3; Thi at 5; D-Igl at 7; Oic at 8 (bradykinin numbering)) [B9340] | 35 |  | 
9 | RPPG[2Thi]S[dF][2Thi]R [[Thi5,8,DPhe7] Bradykinin] | 53 |  | 
10 | XRPXGXSXXR (D-Arg at 0; Hyp at 3; Thi at 5; D-Tic at 7; Oic at 8 (bradykinin numbering)) [Hoe 140] | 29 |  | 
11 | RPPGFSP (also called VP060) [Bradykinin (1-7)] |  | 55 | 
12 | RPPGFSPYR [[Tyr8] Bradykinin] |  |  | % Inhibition ATII receptor [4]: -1%
13 | RPPGFS [Bradykinin (1-6)] | -12 |  | 
14 | RPPGYSPFR (also called VP053) [Tyr5] Bradykinin] |  | 13 | 
15 | KRPPGFSPFR (also called VP048) [[Lys0] Bradykinin] |  | 29 | 
16 | KRPAGFSPFR (also called VP050) [Lys0-Ala3] Bradykinin] |  | 18 | 
17 | YRPPGFSPFR (also called VP051) [[Tyr0] Bradykinin] |  | 33 | 
18 | RPPGF [Bradykinin (1-5)] | 1 |  | 
19 | PPGFSP [Bradykinin (2-7)] | -6 |  | 
20 | ISRPPGFSPFR (also called VP054) [Ile-Ser0]-Bradykinin] |  | 29 | 
21 | KRPPGFSPL (also called VP041) [Lys-(Des-Arg9, Leu8)-Bradykinin] |  | 98 | 
22 | B1 |  |  | Kd [5]: 0.012 nM; IC50 [3]: 0.024 nM; Ki [3]: 0.0078 nM; nH [3]: 1.1
23 | MKRPPGFSPFR (also called VP049) [Met-Lys0] Bradykinin] |  | 38 | 
24 | RPPGFS[dF]FR [[DPhe7] Bradykinin] | 9 |  | 
25 | ADSGEGDFLAEGGGVR [human form of Fibrinopeptide-A] |  |  | % inhibited (ligand-receptor binding) (Bradykinin B1): 24%; % inhibited (ligand-receptor binding) (Cholecystokinin): 33%; % inhibited (ligand-receptor binding) (Estrogen ERa): 33%; % stimulated (ligand-receptor binding) (Glutamate AMPA): 30%; % inhibited (ligand-receptor binding) [6]: 33%; % inhibited (ligand-receptor binding) (Potassium Channel [Ka]): 25%; % stimulated (ligand-receptor binding) (Serotonin 5-HT 2a): 21%; % inhibited (ligand-receptor binding) [7]: 23%; % stimulated (ligand-receptor binding) [8]: 22%
